Measured values taken from the domain aggregation screens of Martell et al. (2025).

Assay: soluble fraction after stress (log2 fold change); higher = more stays soluble; pooled small domains, quantitative proteomics
Settings: stress: 50 degC
Outline: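 Pooled custom libraries of small protein domains were measured in a high-throughput format, with quantitative proteomics as the read-out. Each library was stressed at 50°C. Aggregation propensity is given as the base-two logarithm of the fold change in how much of each protein stays soluble after the stress. Higher values mean a larger share of the protein remains in solution.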

In order of rising “soluble fraction (log2)” value:
1. HMQMEISQRIKLERQTLKWTQEELADKIFVSKRTISNWETGRTVPDIESVLRLAKVFHVSLEDLLL  -4.57
2. HMSQIQIKLDQAIMQLPEKQRFVFMLRYFEELPYEKIAQITETSIGGAKANFHQALKKMQEIIQ  -2.96
3. HMSYGKVQFVIDAKDAVLSIDGKETDYEKPVKLTYGSHTITVYSSDYDTWKRNLYVNSEKSTVVINLA  -2.72
4. HMLKLTDRQKVILSILMSDGEKTASWIASQLGVGLRSVQLDLSYLRNNGFIKKASKSTHSAWIVLKK  -2.5
5. HMGDITALMPGKVIQIIVKEGQEIKVGDPLIVIESMKMENTISSEVNGTIKSINIQIDDNVQFDQVLFTV  -2.1
6. HMEQTIKKYVNVATLNFRSGPSTSYSIISTLSKGTKVEVISTTNNWSKIIYDGKIGYVSSEYLSKSI  -2.1
7. HMNPETIHNDYKAFIKFAFSGLSYYSKVWNQNREMITPGLLETLWQKYRHLSIGEIETILEKIIKEG  -1.88
8. HMAAPLTDRETEVLTLLARGLINKQIAEELHIGLTTVITHRRNIMEKLRVRSLAELILRAVAAGYVDAGR  -1.77
9. HMHLKRQEAINLGAYLLGAELRIHRLSLEELGSERIDEMLAAINYKTLDDLLADIGLGNRPARFVARQLG  -1.53
10. HMKSFIWKQYTVQITKKNVKNTNVRIKRDNPHVILMSIPYSATYKAGLLALETPHIRHWLDNYERKLKQ  -1.48
11. HMKTGTTGLIGEIGVVKKALTPEGKVFVHGELWRAVSKTASPEGTLVQVIKINNLVLEVEKV  -1.47
12. HMEVAAAENYRSKLSSFAKDTISVWQTELLLGTISDDDKASLTEWMAYIKALQVVDTSDPESITWPTEPT  -1.45
13. HMGIDVSAFSDTALEVLRLQAAGYTTREIAQQLHITQRTVKYHASENYRKLDARNLVDAVQIAQSLHI  -1.41
14. HMADASVTAYFKIAEDRLQGRLPDTFSEASLKARYQLTPAQLTAVLTRIAQEGWAERKPGYGWAFSSML  -1.4
15. HMKMATITKRTNPSGAVVYRAQVRVKREGYPPYSESRTFSKKSLATEWAKRREFEIETNPDLLFN  -1.26
16. HMSTVISPLPGNIIKVLVPEGKSVKRGDTILTIESMKMENSIKAAYDGVVKKIYVQQAQIVMQGDPLFDL  -1.24
17. HMGKKYVPGMAVKLSAVPLYAASTSKVPSTHVTGTYYLWDDEVVRGRLRITNLKSRVGISGQVTGWIDKDR  -1.23
18. HMELVQIIGNNIRDLMTTRSVTITDLANYLNVSRQTLQNYLRGSNIIDSVKLVAVSDFFDVPVESLLQSK  -1.04
19. HMAPLEPLTDRETEMLVRLANGASNKVMARESFVSENTIKFHLKNIYAKLGVTSRLQAIAAARNQGLI  -0.891
20. HMQLTQEAIENLFKITTAKKFREELEKLVVTDSEKKAFAYFTVYHPKLKELPFAILKSVENYTGISI  -0.871
21. HMVSVLDHIVGIGAKRRQSLWNHFGTIDKIKAASIDELLKAPGMNRPSAEAVYYFFEAQRQLRGK  -0.744
22. HMNQYIFVLNEKGARITSFVDNTIPKEELIALAKQDYPNAADYIYSADGDSMLDEFMRGKLYVNGQFVAA  -0.69
23. HMESIPDELLEAFKQDPAFKQAFYALTAGRQRGYIIHFSQPKQSQTRIGRIEKYKEQIFNGIGLN  -0.643
24. HMYSLGPKERSIVSFIANRPGSRSGQIAKSLQIPLPTIKRILNGLVENKVIARHGIGAGTNYVVEDQA  -0.594
25. HMHLLGASIAAYRKKAGMTQEDLGRALFVSGQAVSRWERGGTPDSDMLPKIADVLGISLDTLFGRS  -0.559
26. HMPEVYSFEVNEGAAGKRLDIFLSGEIEGLTRSFIQKLISEGMATVNQEPPRASYRVKTRDLVELQIPDPE  -0.488
27. HMESDAIAAAIAALPARYREVLLLRYDNGFSYSEISKALDMTEAAVRKTVQRAKEALQRTLQIQEEDT  -0.471
28. HMLLPANLTKSQRNIAERVARGQSNLEIAADLNITERTVKAHLTSIYEKTKTGNRLNLALLINLG  -0.442
29. HMIDIIEYIISEESKGLRADQGIALQNPQYSRSLIQKWIKKGSVLVNNKIIRTKEILLEGDKISITPEENI  -0.384
30. HMTGINMSYEEYKAMADIIVPLIKAGHSPYHIVTNHPELNISEKTLYNYIENGIFREFGLLDINL  -0.313
31. HMQIMVVDEADRMLDMGFIPDIERIFQLTPFTRQTLFFSATMAPEIERITDTFLHSPERIEVAR  -0.288
32. HMIFRPALITDLDAVERHYTELLTREAETGRSSTNWSLGVYPTRQTATAAQAAGTLWVLEREGQVVASVI  -0.245
33. HMKDVVAPMSGRVVRLMVAAGDEVVKRQALVVVEAMKMENVLTAPKEGRIKKVPVREGMTVEVGQTLVSFE  -0.221
34. HMFIKVEVPDLTGMTLTEVRKALEEKNLKMGDIRPAGQTSLVAKVINQSPQAKMVVDEYSEVSIQFEE  -0.217
35. HMYAGTWTTESGQWKYRQDDGTYAKGWLQDTDGRWYYFDANGRMLSNTATPDGYQVGEDGAWVNH  -0.196
36. HMGVTGYPNPTREHITWDDARRIEVWNAYGVPVADLRFARGVLDVAGWPVGTYVARIDGGRSVRFVVI  -0.19
37. HMPLTEMAVRKHLSAELAQKGYTIDPRALEILLQRTNTNLTAIANELPKLLLVAEDKQITVNEVSAM  -0.164
38. HMPLITDIKIQVKNTEKVSLFVDGKYSFSLTISQLAEHKILKTNQEISAKQVAEFKKLSNLTNLYIRIVG  -0.149
39. HMGAAVEVISLRYRSAAELLPIVRSLLSTEGKISADERTNSLIIVDSDEAVARVIHSLATLDT  -0.125
40. HMDVQEILGALSPDEKAAIGQLTSGEKHIDQIIAATRLPAARITSALTLLQIKGYVRALPGKRFSLTEKQ  -0.0961
41. HMLTAPMPGIVRQVNVDTGQKVRKGQPLMVLEAMKMEHQIIAPQAGKIEAIHYNEGDRVEMGSVLISIF  -0.0961
42. HMSDSAFAEMRRELEALRNSNAEYERALSNFFPEAEDKALAAEAFYQNREYDELVAEREEANVIDGLKR  -0.094
43. HMLKKGDQVYIISGKDKGKLGVVSQIVSEERILVDGINLAKKHVKPNPNKNETGGVVEKEMPIHASNVMI  -0.0911
44. HMRATLTDETARVVQEPTSESISLTSLRKGEEFEIGKVIRKKKEVWVTVTTSSGVKGYISGDTHIF  -0.0573
45. HMNMRVLSEQPNKKSYQDGNLRLKVFGASFKKSDILNEALNQARVEETGLQIPKLLEVKQIDGQWTIVTE  -0.0363
46. HMDENDPYEILEIDRLASDDQVKAKYRALIRENHPDVLMAKGVPQEFIDLANRKMAVINAAYDRIEKEREF  -0.0184
47. HMSVDVEGNQRIPTEQVLSELRDVGVSFGKRVSGLNADTIRNQMIINNDEIAWLGVNVRGSRVYVEITERI  -0.018
48. HMLRTLSTSEFAEAIGISESSARRLADSGDLRIRRTKGGHRKIPAEEAIRYAREIQATVVRPDLLGLST  0.0109
49. HMNITHEINVKSKSKIDFLENNKNLAQFFLTKNPNQFNYNLVFSDKSELNIIKEKIESHKDIEDIDIRYG  0.0125
50. HMKPGTIVTGVVVDIKSDVVVVNAGLKSEGIVPIEQFRNDRGELEVAIGDEVKVALDSLENGFGETVLSRE  0.0252
51. HMEDKFEYQGERKSLIYPTSFSELTEALGVRNMLQSIIDFATRDEDTSGYEEMKERQNEYIQEYL  0.0302
52. HMKKITTANPLDINRATLAQLDTLPGIGPVTAERIIAYRSKVGRINSLDELKKISGLGGMKFEEIKPLLRV  0.042
53. HMKNKRERLGIISEILRMQVIGSQEELLDILRAKGYDVTQATLSRDLKVLKVAKTPLSNGAYKYVLPPQ  0.0519
54. HMSDDSYLVALAEAYKNATSWDIRRQVLSIMTGVSSYKEISRYIPGLTQYRLSISNLHRLQYGRAAPVP  0.0583
55. HMKLSKLTKPELDEIFRNANFTEEEEKVFWLLARGKSLEQISAKTFLPIATVNRRVKSIKDKIG  0.0605
56. HMHSQVFTDPDKAKNAVVKLGAPLVVKADGLALGKGVIIAQNPQAAKEAVASVGSSGISSISVT  0.0607
57. HMEGSLQEDKVKEYQDRFKEELSNDLNTANSITVLYDLIKDDTLNGTTKRYLIEDFDKILSLDLIKE  0.0632
58. HMGQVGIPFSDFLAEVENGQVREVVIKGNDISGTFNDNRGFSTYAPNDPNLVEKLTKRGVVINAQPTE  0.0645
59. HMPAAPVFLQKDLLDAGLIGQADSAARREKLGKILGIGYGNGKVMLQRLNSFGIERDAFEQAVQE  0.0718
60. HMVSTDPVHLFNLGTANRRAGRASEAITSYRKFMEAAPQHPQVPEARAYIHDMEVLLQERQKSEQAASQLS  0.0843
61. HMGNTTEVLVATQDVKANTKIKESMFTTERVDTASLPDNYLSADSAKDVVGYYTYIGFTKGSVISKSNIAT  0.0925
62. HMEAYLPVTVVSDGKILTGNLEKAGKNEKWLENVLSELKTDVKNTLLLTVDPKDGLIFYPKG  0.0932
63. HMEPDEIVLDHRKRIENSDAIVLIAPIWNFRMPAILEGWIDKVLAPPWAFKFKKLFGNYGYPVGNLKG  0.103
64. HMDIFGREAEVEQILQEVRFGDDPHYRLSIGILPVTGHAGAGKTALVRFIFHHEVARAEFTVRMWVHV  0.106
65. HMGRELDLNQRVYDFIHDIADEVRTDEGTFSANQMMERFLFPGDLQSVPIGRLSGGERRRLYLLSVLMVKI  0.117
66. HMNKEHINLDSSKFLSLLNKTKISMSNDETRHYLNGIYIHPTVSNKSSYLTGVATDSHRLSSSSIPVD  0.121
67. HMQEDKSKYLFQRGTAITVLRPAGIVRIGKERVDAVSNGSYIDRGVAVRVIEVEGTRVVVEPVPE  0.13
68. HMDLIEVLAQDTIKKIYNTYVAYKNKVDVFYVAFSGGKDSIVTLDLVQRTLPHNEFKVLFGDTGM  0.133
69. HMDDYRIEDMMTVVEEQVIRQKETNLSWFFKRAGSLNEIITIFLAALELIKVHRVYVKQEHNFDDIILRKE  0.133
70. HMEKSLSAQVYEKIKAGIISLKYPPGSVLKERELSESLGVSRTPVREAIQRLSQESWLVPGEGKRMQVRP  0.134
71. HMATYNEVLKRLIEERKRLGLSQQEMARLVHITQSNYSKVEKGLHRLSYEELKYLSKANVDIFYILT  0.136
72. HMNSLTVPDITNRTLAEASQVLLDMGLTPIPDAVAKDGVGDDVVYAQSPPPNVGAREGDVVTITYNPA  0.156
73. HMEQAAQPQTGFDPRRLKAGDAVHLLALDQRGVLLEDPKPGAESAPVSVGVAGVRVVVPLREMEALPAG  0.157
74. HMENLVPVVVATTNIEPRTQITDAMVKVEQIPALGRNESMLEDPALVVGGYATGKIYAGQSFIQPMVSK  0.179
75. HMGSGVNVTVNGKRMNLPLKDDHIIFVDIFNYIDFDLSKPKGSIVLKLNGRDAGYTDPIKDGDVIDIYWQ  0.33
